Experimental findings from publication PMC12431651 (2025) are described below.

This assay concerns the target T1, MED25 ACID (Homo sapiens, UniProt Q71SY5).
T1 chain: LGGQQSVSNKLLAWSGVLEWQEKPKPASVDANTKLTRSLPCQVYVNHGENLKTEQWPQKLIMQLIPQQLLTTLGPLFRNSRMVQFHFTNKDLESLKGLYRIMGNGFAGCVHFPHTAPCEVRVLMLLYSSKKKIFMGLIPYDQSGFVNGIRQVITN
Briefly: BLI. A general note: In BLI a coated tip is dipped into the sample, and binding shifts an interference pattern.

B1: NS1 (protein)
chain: MGSNSLSMIKVRLQNLFDNDEVALLKITCYTDKLIHLTNALAKAVIHTIKLNGIVFVHVITSSDICPNNNIVVKSNFTTMPVLQNGGYIWEMMELTHCSQPNGLLDDNCEIKFSKKLSDSTMTNYMNQLSELLGFDLNP
One may read the Kd as a measure of binding affinity in units of concentration. A high value points to weaker binding. With B1, binding was put at a Kd of 0.016 µM.
